Source: IntAct's records for PubMed 21037004

B1: Protein-export protein SecB (Escherichia coli (strain K12)), P0AG86 (parent)
chain: MSEQNNTEMTFQIQRIYTKDISFEAPNAPHVFQKDWQPEVKLDLDTASSQLADDVYEVVLRVTVTASLGEETAFLCEVQQGGIFSIAGIEGTQMAHCLGAYCPNILFPYARECITSMVSRGTFPQLNLAPVNFDALFMNYLQQQAGEGTEEHQDA

Variants of: B1
Conditions: with seca_ecoli secA

Effect of a mutation on the interaction, increasing interaction strength:
S85C
A87C
Q143C
Q50C
E150C
E24C
L126C
T65C
D43C
L136C
Q14C
A155C
D35C
T149C
L141C
T46C
T92C
D45C
G146E
E147C
Q33C
